Data: PMC5445624
Blank lines part the entries; values can stand above or below the substance they belong to.

Assays:
[1] = target: GST-ETV4(1-335)(WT) SUMOylated with wild-type SUMO3, P28322;P55854; experiment: GST pulldown; conditions: printed grade '++' (legend: ≥50% of RNF4(WT)); parent: +++ (≥80%)
[2] = target: MBP-RNF4(WT) (UniProt O88846); experiment: GST pulldown; conditions: for ratio to parent: parent: est. 1.0, read off a plot

percent of parent (% of RNF4(WT)) [1]: 50
Substance: MBP-RNF4(WT) (from UniProt O88846) SIM1,2mut

response (% bound relative to input) ([2]; ETV4 co-expressed in bacteria with SUMO3(K11R), lane 5, parent: 49): 3 | ratio to parent ([2]; ETV4 co-expressed with SUMO3(K11R)): 0.05
Substance: GST-ETV4(1-480)(WT) modified with SUMO3(K11R) (from UniProt P28322;P55854) K96R; K222R; K256R; K328R

response (% bound relative to input) ([2]; ETV4 co-expressed in bacteria with SUMO3(WT), lane 1, parent: 60): 12 | ratio to parent ([2]; ETV4 co-expressed with SUMO3(WT)): 0.03
Substance: GST-ETV4(1-480)(WT) modified with SUMO3(WT) (from UniProt P28322;P55854) K96R; K222R; K256R; K328R
